± gives the standard deviation of the averaged measurements.
System: ATP
Experiment: switch fluorescence ratio, 500 uM ATP over buffer (Cy3 cluster intensity, sum of 5 cycles each) (fold (ratio)); higher = stronger signal-on switching upon ATP binding; sequences stand for … in TCGTCGGCAGCGTCAGATGTGTATAAGAGACAGTTTTTTTTTTTTTTTTTTTTTTTTT…TC
Conditions: aptamer strand: ATP DNA aptamer (quencher-CACCTGGGGGAGTATTGCGGAGGAAGG + anchor), 100 nM annealed; ATP concentration: 500 uM
How it was run: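 Values give the fluorescence ratio for each switch-domain sequence, averaged from per-cluster ratios of summed target-cycle to summed buffer-cycle Cy3 intensity. The Cy3-labelled switching-strand clusters sat on a modified Illumina MiSeq flow-cell, were annealed to 100 nM quencher-labelled ATP aptamer, and were imaged in selection buffer, then after 15 min with 500 uM ATP at 22 °C. Five cycles ran with NaOH stripping and re-annealing between them, and clusters outside 100-1000 RFU were excluded.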
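Also: ATP exposure 15 min at 22 °C before imaging.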

AATACGGTAT
switch fluorescence ratio: 1.05 ± 0.05

ATGGGTGTGC
switch fluorescence ratio: 1 ± 0.034

TATAGAAAAT
switch fluorescence ratio: 1.03 ± 0.026

GGCCTCGTAC
switch fluorescence ratio: 1.1 ± 0.02

CTTATGAAGG
switch fluorescence ratio: 0.989 ± 0.024

ATATGGTTGA
switch fluorescence ratio: 0.964 ± 0.049

GTTTAATTGC
switch fluorescence ratio: 0.995 ± 0.049

GAAGGAATAG
switch fluorescence ratio: 1.66 ± 0.92

GTGGTGTGTT
switch fluorescence ratio: 1.05 ± 0.14

TAACAAGGCA
switch fluorescence ratio: 0.985 ± 0.013

GAAAGCGCGT
switch fluorescence ratio: 0.965 ± 0.028

TCAGATTTGG
switch fluorescence ratio: 0.9901 ± 0.006

AGATTTAGAG
switch fluorescence ratio: 1.011 ± 0.0032

AACGAGAAGC
switch fluorescence ratio: 0.9895 ± 0.004

ACGGAGGATA
switch fluorescence ratio: 1.11 ± 0.014

CGGGGCTGTG
switch fluorescence ratio: 1 ± 0.013

CTTGACATGT
switch fluorescence ratio: 0.976 ± 0.016

ATGGATAGCG
switch fluorescence ratio: 0.968 ± 0.074

AAAAGTCGGC
switch fluorescence ratio: 1.04 ± 0.057

GGGATAGAAG
switch fluorescence ratio: 0.971 ± 0.019

AATTTACACT
switch fluorescence ratio: 1.06 ± 0.014

GACTGGGGTT
switch fluorescence ratio: 0.9891 ± 0.0059

CGGCTTAAGG
switch fluorescence ratio: 1.01 ± 0.019

CGCCGCGTCA
switch fluorescence ratio: 1 ± 0.038

GCTGTTGGCG
switch fluorescence ratio: 0.9728 ± 0.0043

GGGGACGTCA
switch fluorescence ratio: 0.998 ± 0.012

AATTCTATAG
switch fluorescence ratio: 0.995 ± 0.033

AGGTTTTCGT
switch fluorescence ratio: 1.028 ± 0.0039

GGGGCGGCGG
switch fluorescence ratio: 0.962 ± 0.066

TTACACTTGT
switch fluorescence ratio: 1 ± 0.032

GGGATTGTTT
switch fluorescence ratio: 0.965 ± 0.021

GAGGGTTTTA
switch fluorescence ratio: 1 ± 0.016

CTTGGTTAGT
switch fluorescence ratio: 1.03 ± 0.056

CACGAGAAGT
switch fluorescence ratio: 1.044 ± 0.0047

GTTTAAATAG
switch fluorescence ratio: 1.04 ± 0.011

GCTGAGCGGA
switch fluorescence ratio: 0.995 ± 0.035

AATCAATCTA
switch fluorescence ratio: 1.01 ± 0.071

GCGGATGTAG
switch fluorescence ratio: 1.01 ± 0.03

CGTTTTCGGA
switch fluorescence ratio: 0.982 ± 0.032

ATTAATAGCA
switch fluorescence ratio: 0.9745 ± 0.0089

TCCTAAGGGC
switch fluorescence ratio: 1.04 ± 0.038

TTGTGAAATT
switch fluorescence ratio: 0.993 ± 0.015

GCTTCAGGCC
switch fluorescence ratio: 1.02 ± 0.022

TGGCGTTAGG
switch fluorescence ratio: 0.977 ± 0.019

GGGGGATCAG
switch fluorescence ratio: 0.992 ± 0.045

TGTGTTGTTT
switch fluorescence ratio: 1 ± 0.044

CGGATGGATC
switch fluorescence ratio: 1.02 ± 0.041

TCAACTGGTG
switch fluorescence ratio: 1.35 ± 0.16

GATTTTAGTT
switch fluorescence ratio: 0.9848 ± 0.0086

CAGCTATCTT
switch fluorescence ratio: 1.039 ± 0.01

CCCCTGACAA
switch fluorescence ratio: 1.79 ± 0.059

GTACCTAACT
switch fluorescence ratio: 1.2 ± 0.025

GTTTGTGCGG
switch fluorescence ratio: 0.9811 ± 0.0084

TGTTGGGGTT
switch fluorescence ratio: 1.01 ± 0.018

GCAAATTCCG
switch fluorescence ratio: 1.026 ± 0.0095

GGTTCGGGGT
switch fluorescence ratio: 0.982 ± 0.012

AGGTTTGACA
switch fluorescence ratio: 1.027 ± 0.0067

TGTTAAATTT
switch fluorescence ratio: 1.01 ± 0.045

AATGGCGCGA
switch fluorescence ratio: 1.02 ± 0.054

GGGGAGGAGT
switch fluorescence ratio: 1.01 ± 0.026

AATAATGCAA
switch fluorescence ratio: 1.07 ± 0.022

TATAGGTTGG
switch fluorescence ratio: 1.02 ± 0.031

GTCTGAGGTT
switch fluorescence ratio: 0.963 ± 0.015

CAGGCTCTTT
switch fluorescence ratio: 0.978 ± 0.036

TAATGAGCTA
switch fluorescence ratio: 0.987 ± 0.042

CTGTGGGGGG
switch fluorescence ratio: 0.9869 ± 0.0097

CGTGGGGAGG
switch fluorescence ratio: 1.05 ± 0.017

AGGATGCATT
switch fluorescence ratio: 1.8 ± 1.1

GCTTACTGCT
switch fluorescence ratio: 0.947 ± 0.029

GGGTTGGGAA
switch fluorescence ratio: 0.988 ± 0.023

GGGTAGGGGT
switch fluorescence ratio: 1.02 ± 0.074

GTAGTTGGAA
switch fluorescence ratio: 0.9968 ± 0.0085

TTTGTTGGCT
switch fluorescence ratio: 0.972 ± 0.058

TGCTAGGGTT
switch fluorescence ratio: 1 ± 0.032

CTGATAAGCG
switch fluorescence ratio: 0.991 ± 0.039

AGTTGCGGTT
switch fluorescence ratio: 1.002 ± 0.0018

ATGTCGACTA
switch fluorescence ratio: 1.02 ± 0.021

CGACTTTCAA
switch fluorescence ratio: 1.05 ± 0.032

TCGGGTTGGG
switch fluorescence ratio: 0.975 ± 0.023

GGGGTAATGC
switch fluorescence ratio: 1.34 ± 0.18

TTTTACAGCA
switch fluorescence ratio: 1.04 ± 0.03

GTTGATAAGT
switch fluorescence ratio: 1.01 ± 0.0084

AACGGCAGGG
switch fluorescence ratio: 1 ± 0.024

GTTTTCGCCG
switch fluorescence ratio: 1.03 ± 0.11

AAGTGAATAA
switch fluorescence ratio: 0.998 ± 0.017

ATAATAATGG
switch fluorescence ratio: 1 ± 0.037

TTTGTTGTAT
switch fluorescence ratio: 1 ± 0.032

TTTGTTTCAA
switch fluorescence ratio: 0.982 ± 0.013

GAGAAAATCG
switch fluorescence ratio: 1 ± 0.043

TATTAACCTT
switch fluorescence ratio: 1.6415 ± 0.00013

TCTGGGGCCG
switch fluorescence ratio: 1.02 ± 0.065

TCCGGTCAGC
switch fluorescence ratio: 1.13 ± 0.15

ACTAGTGTCA
switch fluorescence ratio: 1 ± 0.04

ACAGGGGTAA
switch fluorescence ratio: 1.01 ± 0.013

ATATGCGAAC
switch fluorescence ratio: 1.1 ± 0.035

GTGGGTATGG
switch fluorescence ratio: 1.002 ± 0.01

TAGCTTGTTT
switch fluorescence ratio: 1.02 ± 0.022

GGTGGGCTAA
switch fluorescence ratio: 0.9827 ± 0.0057

AGTAATAGGA
switch fluorescence ratio: 1.03 ± 0.076

GCGGGAATTG
switch fluorescence ratio: 0.981 ± 0.023

TGCAATTTTT
switch fluorescence ratio: 1.04 ± 0.077

ATAAGGGAAC
switch fluorescence ratio: 1.04 ± 0.017

ACGCTTACTA
switch fluorescence ratio: 1.44 ± 0.054

GTTCTCCTGA
switch fluorescence ratio: 1.01 ± 0.014

AAATTGCGGC
switch fluorescence ratio: 0.975 ± 0.012

GCAGTGTCCA
switch fluorescence ratio: 1.01 ± 0.032

CGTTTGGTCT
switch fluorescence ratio: 1 ± 0.051

TTTTACCCGG
switch fluorescence ratio: 1.04 ± 0.029

GCAATATTTC
switch fluorescence ratio: 2.31 ± 0.35

TTTGTGCCGG
switch fluorescence ratio: 1.012 ± 0.007

ACCTTGGCTC
switch fluorescence ratio: 1.1 ± 0.06

GGATAGGGGC
switch fluorescence ratio: 1.03 ± 0.054

AGGGAAGGTT
switch fluorescence ratio: 0.982 ± 0.022

GCTTACTCTG
switch fluorescence ratio: 1.62 ± 0.085

TCCTGCTCCG
switch fluorescence ratio: 1.56 ± 0.13

GAGACCCTAT
switch fluorescence ratio: 1.029 ± 0.0074

ATTGGGTCTA
switch fluorescence ratio: 0.978 ± 0.021

GTATTTGGGT
switch fluorescence ratio: 0.986 ± 0.041

TTGAGACGGT
switch fluorescence ratio: 1 ± 0.017

TGGGTGAGTT
switch fluorescence ratio: 1.02 ± 0.019

TTCGCGGGCT
switch fluorescence ratio: 0.996 ± 0.028

TTGGTATGTG
switch fluorescence ratio: 0.968 ± 0.017

GGCCTGGGAG
switch fluorescence ratio: 0.992 ± 0.011

TAGGAGGGAG
switch fluorescence ratio: 1.02 ± 0.031

AAAATGATCG
switch fluorescence ratio: 1.006 ± 0.0074

CCGTGGGTGT
switch fluorescence ratio: 1.26 ± 0.15

AGGTTTGCGT
switch fluorescence ratio: 1.01 ± 0.021

TAGGTTGCAA
switch fluorescence ratio: 0.9665 ± 0.007

TGCTGGGGTA
switch fluorescence ratio: 0.99 ± 0.024

ATGGTTACGG
switch fluorescence ratio: 1 ± 0.035

GTGGAAGGGT
switch fluorescence ratio: 1.02 ± 0.042

TAGCGCAATT
switch fluorescence ratio: 1.74 ± 0.22

TTCCATTTGT
switch fluorescence ratio: 1.031 ± 0.0019

TAATTGATGT
switch fluorescence ratio: 1.01 ± 0.06

TTTTTACGTG
switch fluorescence ratio: 0.969 ± 0.035

TTAGGTTTTT
switch fluorescence ratio: 1.08 ± 0.19

TTGGGCGATT
switch fluorescence ratio: 1.06 ± 0.045

TTGGGAAAGG
switch fluorescence ratio: 1.002 ± 0.0053

TTTCGGAACC
switch fluorescence ratio: 1.2 ± 0.22

TGGGCGCCGT
switch fluorescence ratio: 0.957 ± 0.017

CTCGTTTAGA
switch fluorescence ratio: 1.022 ± 0.0084

AAGTTCGCCT
switch fluorescence ratio: 1.09 ± 0.13

AGCTAGCGTT
switch fluorescence ratio: 0.997 ± 0.024

GATGTGGGGG
switch fluorescence ratio: 0.99 ± 0.028

TAGGTGGGCA
switch fluorescence ratio: 0.987 ± 0.054

GTGGTCTCCG
switch fluorescence ratio: 0.982 ± 0.038

CTAGGGGGGC
switch fluorescence ratio: 1 ± 0.093

CAGTGTTA
switch fluorescence ratio: 0.985 ± 0.064

TACAGCTGCG
switch fluorescence ratio: 1.007 ± 0.0015

TTTGTTAGC
switch fluorescence ratio: 1.03 ± 0.019

TCTGTCTATA
switch fluorescence ratio: 1.03 ± 0.026

TTCAGGAGGG
switch fluorescence ratio: 0.991 ± 0.042

TTACGGTTTT
switch fluorescence ratio: 1.01 ± 0.023

CTAAATTGCC
switch fluorescence ratio: 0.9991 ± 0.0056

TTCACGAAGA
switch fluorescence ratio: 1 ± 0.0015

CGGGTGGTGC
switch fluorescence ratio: 1.014 ± 0.0086

CGGAAGACGT
switch fluorescence ratio: 1.02 ± 0.036

CGGTTGTGAG
switch fluorescence ratio: 1.01 ± 0.031

ACCGGTTAAC
switch fluorescence ratio: 1.02 ± 0.035

GGTTTGATGC
switch fluorescence ratio: 0.962 ± 0.055

TCGGGGCCGA
switch fluorescence ratio: 0.969 ± 0.01

AATTTAAGAA
switch fluorescence ratio: 0.971 ± 0.013

TTCGGGGTAG
switch fluorescence ratio: 0.963 ± 0.048

GTCAGGGGGA
switch fluorescence ratio: 1.07 ± 0.14

GGGATGGGTC
switch fluorescence ratio: 0.985 ± 0.02

CCGGGAGCCG
switch fluorescence ratio: 1.023 ± 0.0053

TTGTGTATGC
switch fluorescence ratio: 0.958 ± 0.1

CTAAATGGGA
switch fluorescence ratio: 1.01 ± 0.029

GATAGTGCTG
switch fluorescence ratio: 1.05 ± 0.12

TTCAAGGAGG
switch fluorescence ratio: 0.978 ± 0.016

ATTAGCAATG
switch fluorescence ratio: 1.354 ± 0.006

TTGTTGGGGT
switch fluorescence ratio: 1.05 ± 0.12

TCGTGGCGGA
switch fluorescence ratio: 0.979 ± 0.011

GCATGATATG
switch fluorescence ratio: 1.01 ± 0.0088

TTAATTGTTT
switch fluorescence ratio: 0.989 ± 0.018

GCGTTCTCGC
switch fluorescence ratio: 0.968 ± 0.016

AGTGGGTTTC
switch fluorescence ratio: 0.9697 ± 0.0026

GGTTCATCGG
switch fluorescence ratio: 0.9912 ± 0.0029

TGAATGAGTT
switch fluorescence ratio: 1.02 ± 0.03

TAAGTAAGGG
switch fluorescence ratio: 1 ± 0.025

CATGTTGATG
switch fluorescence ratio: 1.0056 ± 0.00049

GGAGGAAGGG
switch fluorescence ratio: 0.983 ± 0.025

ATAATATGAG
switch fluorescence ratio: 0.993 ± 0.056

GGTTCTCAGG
switch fluorescence ratio: 1.02 ± 0.011

GAGGATAGGT
switch fluorescence ratio: 0.98 ± 0.011

GGGTAGCGGG
switch fluorescence ratio: 1.01 ± 0.033

TTCTAGGTAG
switch fluorescence ratio: 0.991 ± 0.05

TAACGGACGT
switch fluorescence ratio: 1.01 ± 0.054

GGAGAAAGCG
switch fluorescence ratio: 0.976 ± 0.016

AGTGTTGCCG
switch fluorescence ratio: 0.965 ± 0.069

GGACCAAAAG
switch fluorescence ratio: 1.002 ± 0.0067

CAGTAGTTGC
switch fluorescence ratio: 1.091 ± 0.0086

GGAGGGCTCG
switch fluorescence ratio: 0.981 ± 0.043

GGTATCAAGT
switch fluorescence ratio: 0.9675 ± 0.0076

TCGACCGATT
switch fluorescence ratio: 1.03 ± 0.037

GATCATAATA
switch fluorescence ratio: 0.995 ± 0.043

TGGAATTGCC
switch fluorescence ratio: 1.024 ± 0.0089

TATGTAAGGA
switch fluorescence ratio: 0.985 ± 0.041

GAGAGTGGGC
switch fluorescence ratio: 1 ± 0.043

TTATATGAGG
switch fluorescence ratio: 0.962 ± 0.045
